{"source": "paper PMC5244374", "molecular_target": "homotarsinin (Htr), cystine-linked homodimer (Phyllomedusa tarsius)", "assay": "SEC; 2 mg/mL peptide, Superdex Peptide 10/300 GL, 20 mM phosphate pH 7.0, 0.3 M NaCl, room temperature, 0.3 mL/min; homotarsinin and distinctin compared by retention time", "data": [{"substance": "homotarsinin (Htr), cystine-linked homodimer (peptide)", "values": [{"measurement": "stoichiometry N", "value": 2}]}]}
